Laboratory results from publication PMC11258689, “A Snake Venom Peptide and Its Derivatives Prevent Aβ42 Aggregation and Eliminate Toxic Aβ42 Aggregates In Vitro” (ACS Chemical Neuroscience, 2024).
Non-standard residues stand in square brackets, D forms with d. No end group written: not given here.

Target: amyloid-β (1–42) (UniProt P05067)

B1: CDP-1D, D-enantiomeric form of CDP-1 (peptide)
peptide: Ac-[dK][dK][dC][dC][dK][dW][dR][dW][dR][dC][dD][dM][dK]
modifications: not fully specified (C-terminus); cysteine pairing not given here; also: methylated at the C-terminus
ThT fluorescence of Aβ42 aggregation (10 μM Aβ42, 28 μM peptide, 24 h); inhibition of the self-aggregation of Aβ42: 100%
